Measurements reported in the supplement of paper PMC11316812.
± gives the standard deviation of the averaged measurements.

Experiments:
MCF7 = assay: percentage of EdU-negative (G0-arrested) nuclei per well, 72 h; higher = more G0 arrest; conditions: reference: sequence is the full UniProt precursor, the tested protein was the secreted form or ectodomain
hTERT-HMEC = assay: as above; conditions: reference: sequence is the full UniProt precursor, the tested protein was the secreted form or ectodomain
[1] = protein concentration 0.0225 µM
[2] = protein concentration 0.0357143 µM
[3] = protein concentration 0.357143 µM
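Also: secreted proteins added to cultured cells, EdU pulse at the end, nuclei found by Hoechst imaging, EdU status from nuclear versus surrounding ring intensity ratio, PBS as neutral control.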

MMLRLLSSLLLVAVASGYGPPSSRPSSRVVNGEDAVPYSWPWQVSLQYEKSGSFYHTCGGSLIAPDWVVTAGHCISSSRTYQVVLGEYDRAVKEGPEQVIPINSGDLFVHPLWNRSCVACGNDIALIKLSRSAQLGDAVQLASLPPAGDILPNETPCYITGWGRLYTNGPLPDKLQEALLPVVDYEHCSRWNWWGSSVKKTMVCAGGDIRSGCNGDSGGPLNCPTEDGGWQVHGVTSFVSAFGCNTRRKPTVFTRVSAFIDWIEETIASH
percentage of EdU-negative (MCF7; protein concentration 0.022 µM): 25.2 ± 2.1%
percentage of EdU-negative (MCF7; protein concentration 0.22 µM): 29.66 ± 0.19%
percentage of EdU-negative (hTERT-HMEC; protein concentration 0.022 µM): 5.18 ± 0.89%
percentage of EdU-negative (hTERT-HMEC; protein concentration 0.22 µM): 8.27 ± 2%

MMLRVLVGAVLPAMLLAAPPPINKLALFPDKSAWCEAKNITQIVGHSGCEAKSIQNRACLGQCFSYSVPNTFPQSTESLVHCDSCMPAQSMWEIVTLECPGHEEVPRVDKLVEKILHCSCQACGKEPSHEGLSVYVQGEDGPGSQPGTHPHPHPHPHPGGQTPEPEDPPGAPHTEEEGAED
percentage of EdU-negative (MCF7; [1]): 25.6 ± 1.4%
percentage of EdU-negative (MCF7; protein concentration 0.225 µM): 24.7 ± 0.79%
percentage of EdU-negative (hTERT-HMEC; [1]): 5.79 ± 0.84%
percentage of EdU-negative (hTERT-HMEC; protein concentration 0.225 µM): 5.88 ± 0.42%

MMPKHCFLGFLISFFLTGVAGTQSTHESLKPQRVQFQSRNFHNILQWQPGRALTGNSSVYFVQYKIMFSCSMKSSHQKPSGCWQHISCNFPGCRTLAKYGQRQWKNKEDCWGTQELSCDLTSETSDIQEPYYGRVRAASAGSYSEWSMTPRFTPWWETKIDPPVMNITQVNGSLLVILHAPNLPYRYQKEKNVSIEDYYELLYRVFIINNSLEKEQKVYEGAHRAVEIEALTPHSSYCVVAEIYQPMLDRRSQRSEERCVEIP [Q969J5]
percentage of EdU-negative (MCF7; [1]): 24.1 ± 0.85%
percentage of EdU-negative (MCF7; protein concentration 0.225 µM): 27.2 ± 3%
percentage of EdU-negative (hTERT-HMEC; [1]): 4.89 ± 0.64%
percentage of EdU-negative (hTERT-HMEC; protein concentration 0.225 µM): 5.48 ± 0.17%

MMQKLLKCSRLVLALALILVLESSVQGYPTRRARYQWVRCNPDSNSANCLEEKGPMFELLPGESNKIPRLRTDLFPKTRIQDLNRIFPLSEDYSGSGFGSGSGSGSGSGSGFLTEMEQDYQLVDESDAFHDNLRSLDRNLPSDSQDLGQHGLEEDFML
percentage of EdU-negative (MCF7; [1]): 24.3 ± 3.3%
percentage of EdU-negative (MCF7; protein concentration 0.225 µM): 26 ± 1.7%
percentage of EdU-negative (hTERT-HMEC; [1]): 5.29 ± 0.12%
percentage of EdU-negative (hTERT-HMEC; protein concentration 0.225 µM): 5.72 ± 0.97%

MMRCCRRRCCCRQPPHALRPLLLLPLVLLPPLAAAAAGPNRCDTIYQGFAECLIRLGDSMGRGGELETICRSWNDFHACASQVLSGCPEEAAAVWESLQQEARQAPRPNNLHTLCGAPVHVRERGTGSETNQETLRATAPALPMAPAPPLLAAALALAYLLRPLA [Q496H8]
percentage of EdU-negative (MCF7; [1]): 24.2 ± 1.7%
percentage of EdU-negative (MCF7; protein concentration 0.225 µM): 23.3 ± 0.52%
percentage of EdU-negative (hTERT-HMEC; [1]): 4.98 ± 0.36%
percentage of EdU-negative (hTERT-HMEC; protein concentration 0.225 µM): 5.04 ± 1.6%

MMRTCVLLSAVLWCLTGVQCPRFTLFNKKGFIYGKTGQPDKIYVELHQNSPVLICMDFKLSKKEIVDPTYLWIGPNEKTLTGNNRINITETGQLMVKDFLEPLSGLYTCTLSYKTVKAETQEEKTVKKRYDFMVFAYREPDYSYQMAVRFTTRSCIGRYNDVFFRVLKKILDSLISDLSCHVIEPSYKCHSVEIPEHGLIHELFIAFQVNPFAPGWKGACNGSVDCEDTTNHNILQARDRIEDFFRSQAYIFYHNFNKTLPAMHFVDHSLQVVRLDSCRPGFGKNERLHSNCASCCVVCSPATFSPDVNVTCQTCVSVLTYGAKSCPQTSNKNQQYED [Q6X784]
percentage of EdU-negative (MCF7; [2]): 24.6 ± 1.8%
percentage of EdU-negative (MCF7; [3]): 28.8 ± 3.5%
percentage of EdU-negative (hTERT-HMEC; [2]): 4.95 ± 0.69%
percentage of EdU-negative (hTERT-HMEC; [3]): 6.88 ± 0.23%

MMSFLLGAILTLLWAPTAQAEVLLQPDFNAEKFSGLWYVVSMASDCRVFLGKKDHLSMSTRAIRPTEEGGLHVHMEFPGADGCNQVDAEYLKVGSEGHFRVPALGYLDVRIVDTDYSSFAVLYIYKELEGALSTMVQLYSRTQDVSPQALKSFQDFYPTLGLPKDMMVMLPQSDACNPESKEAP [Q6UWW0]
percentage of EdU-negative (MCF7; [1]): 26.2 ± 2.2%
percentage of EdU-negative (MCF7; protein concentration 0.225 µM): 25.9 ± 0.71%
percentage of EdU-negative (hTERT-HMEC; [1]): 5.79 ± 0.094%
percentage of EdU-negative (hTERT-HMEC; protein concentration 0.225 µM): 6.89 ± 0.15%

MMSFVQKGSWLLLALLHPTIILAQQEAVEGGCSHLGQSYADRDVWKPEPCQICVCDSGSVLCDDIICDDQELDCPNPEIPFGECCAVCPQPPTAPTRPPNGQGPQGPKGDPGPPGIPGRNGDPGIPGQPGSPGSPGPPGICESCPTGPQNYSPQYDSYDVKSGVAVGGLAGYPGPAGPPGPPGPPGTSGHPGSPGSPGYQGPPGEPGQAGPSGPPGPPGAIGPSGPAGKDGESGRPGRPGERGLPGPPGIKGPAGIPGFPGMKGHRGFDGRNGEKGETGAPGLKGENGLPGENGAPGPMGPRGAPGERGRPGLPGAAGARGNDGARGSDGQPGPPGPPGTAGFPGSPGAKGEVGPAGSPGSNGAPGQRGEPGPQGHAGAQGPPGPPGINGSPGGKGEMGPAGIPGAPGLMGARGPPGPAGANGAPGLRGGAGEPGKNGAKGEPGPRGERGEAGIPGVPGAKGEDGKDGSPGEPGANGLPGAAGERGAPGFRGPAGPNGIPGEKGPAGERGAPGPAGPRGAAGEPGRDGVPGGPGMRGMPGSPGGPGSDGKPGPPGSQGESGRPGPPGPSGPRGQPGVMGFPGPKGNDGAPGKNGERGGPGGPGPQGPPGKNGETGPQGPPGPTGPGGDKGDTGPPGPQGLQGLPGTGGPPGENGKPGEPGPKGDAGAPGAPGGKGDAGAPGERGPPGLAGAPGLRGGAGPPGPEGGKGAAGPPGPPGAAGTPGLQGMPGERGGLGSPGPKGDKGEPGGPGADGVPGKDGPRGPTGPIGPPGPAGQPGDKGEGGAPGLPGIAGPRGSPGERGETGPPGPAGFPGAPGQNGEPGGKGERGAPGEKGEGGPPGVAGPPGGSGPAGPPGPQGVKGERGSPGGPGAAGFPGARGLPGPPGSNGNPGPPGPSGSPGKDGPPGPAGNTGAPGSPGVSGPKGDAGQPGEKGSPGAQGPPGAPGPLGIAGITGARGLAGPPGMPGPRGSPGPQGVKGESGKPGANGLSGERGPPGPQGLPGLAGTAGEPGRDGNPGSDGLPGRDGSPGGKGDRGENGSPGAPGAPGHPGPPGPVGPAGKSGDRGESGPAGPAGAPGPAGSRGAPGPQGPRGDKGETGERGAAGIKGHRGFPGNPGAPGSPGPAGQQGAIGSPGPAGPRGPVGPSGPPGKDGTSGHPGPIGPPGPRGNRGERGSEGSPGHPGQPGPPGPPGAPGPCCGGVGAAAIAGIGGEKAGGFAPYYGDEPMDFKINTDEIMTSLKSVNGQIESLISPDGSRKNPARNCRDLKFCHPELKSGEYWVDPNQGCKLDAIKVFCNMETGETCISANPLNVPRKHWWTDSSAEKKHVWFGESMDGGFQFSYGNPELPEDVLDVHLAFLRLLSSRASQNITYHCKNSIAYMDQASGNVKKALKLMGSNEGEFKAEGNSKFTYTVLEDGCTKHTGEWSKTVFEYRTRKAVRLPIVDIAPYDIGGPDQEFGVDVGPVCFL
percentage of EdU-negative (MCF7; [1]): 26.55 ± 0.19%
percentage of EdU-negative (MCF7; protein concentration 0.225 µM): 27.4 ± 1.2%
percentage of EdU-negative (hTERT-HMEC; [1]): 4.96 ± 0.66%
percentage of EdU-negative (hTERT-HMEC; protein concentration 0.225 µM): 6.99 ± 0.87%
